Experimental data as given in the supplement of paper PMC12855868.

B1: library; numbered along this chain (parent)
chain: MAAAGGARLLRAASAVLGGPAGRWLHHAGSRAGSSGLLRNRGPGGSAEASRSLSVSARARSSSEDKITVHFINRDGETLTTKGKVGDSLLDVVVENNLDIDGFGACEGTLACSTCHLIFEDHIYEKLDAITDEENDMLDLAYGLTDRSRLGCQICLTKSMDNMTVRVPETVADARQSIDVGKTS

Variants of: B1
Experiment: scaled log2 fold change in cell abundance, elesclomol vs control (0 = silent mean, 1 = nonsense mean) (scaled log2 ratio); higher = higher viability under elesclomol (loss of FDX1 cuproptosis function)
Details: glucose 10 mM
[1] = with ABC1 FDX1 KO, elesclomol 5 nM, 14 days
[2] = with HEK293T FDX1 KO, elesclomol 40 nM, 11 days
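Also: variant abundance is its share of total variant reads in each endpoint sample, from next-generation sequencing of the integrated ORF PCR-amplified out of genomic DNA.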

Row | Variant | scaled log2 fold change [1] | scaled log2 fold change [2]
1 | Y142G | -0.302 | -0.393
2 | Y142H | -0.0863 | 0.947
3 | Y142I | -0.441 | –
4 | Y142K | 0.0326 | –
5 | Y142L | -0.24 | -0.251
6 | Y142M | -0.877 | -0.0122
7 | Y142N | -0.329 | –
8 | Y142P | -1.37 | –
9 | Y142Q | -0.102 | -0.021
10 | Y142R | 0.172 | -1.11
11 | Y142S | -0.293 | -1.45
12 | Y142T | -0.197 | 0.583
13 | Y142V | -0.226 | -0.606
14 | Y142W | -0.245 | 0.733
15 | G143A | 0.189 | 1
16 | G143C | -0.043 | 0.0676
17 | G143D | 0.242 | 0.59
18 | G143E | -0.312 | -0.391
19 | G143F | -0.335 | 0.343
20 | G143H | -0.162 | -0.302

Row | Variant | scaled log2 fold change [1] | scaled log2 fold change [2]
21 | G143I | -0.102 | -0.507
22 | G143K | -1.13 | 0.329
23 | G143L | -0.0816 | 0.114
24 | G143M | 0.337 | -0.813
25 | G143N | -0.705 | 0.0112
26 | G143P | 0.108 | -0.153
27 | G143Q | -0.167 | 0.225
28 | G143R | 0.384 | -1.11
29 | G143S | -0.338 | 0.106
30 | G143T | 0.153 | -1.08
31 | G143V | 0.0102 | -0.395
32 | G143W | -0.202 | -0.602
33 | G143Y | 0.0128 | 0.695
34 | L144A | 0.157 | -0.304
35 | L144C | 0.106 | -0.265
36 | L144D | 0.171 | -0.877
37 | L144E | 0.116 | 0.0837
38 | L144F | -0.293 | 1.23
39 | L144G | -0.079 | -0.323
40 | L144H | -0.0895 | -0.335

Row | Variant | scaled log2 fold change [1] | scaled log2 fold change [2]
41 | L144I | 0.399 | -0.124
42 | L144K | 0.175 | -0.503
43 | L144M | 0.249 | -0.887
44 | L144N | 0.342 | -0.655
45 | L144P | 0.386 | 0.307
46 | L144Q | 0.137 | -1.45
47 | L144R | 0.343 | 0.505
48 | L144S | -0.409 | 0.564
49 | L144T | 0.135 | -0.511
50 | L144V | -0.402 | -0.057
51 | L144W | -0.112 | -0.217
52 | L144Y | -1.21 | -0.239
53 | T145A | -0.6 | 0.187
54 | T145C | -0.124 | -0.351
55 | T145D | -0.00306 | -0.25
56 | T145E | -0.0343 | -0.344
57 | T145F | -0.258 | -0.0341
58 | T145G | 0.132 | 1.06
59 | T145H | -0.157 | -0.272
